Experimental findings from patent US20220332804A1 (CSL INNOVATION, published 2022) are described below.

Substitutions are numbered along the chain they refer to.

Holding throughout (assay): SPR; KD relative to WT C2;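 further: biacore SPR at 37 °C, anti-C2 mAbs captured on an anti-human IgG chip, alanine or serine C2 surface mutants tested, KD from 1:1 fit compared with wild-type C2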
For orientation: SPR reads the build-up and loss of mass on a sensor chip optically.

One assay has as its target T1, human C2 E686A (human, UniProt P06681 21-752).
T1 sequence: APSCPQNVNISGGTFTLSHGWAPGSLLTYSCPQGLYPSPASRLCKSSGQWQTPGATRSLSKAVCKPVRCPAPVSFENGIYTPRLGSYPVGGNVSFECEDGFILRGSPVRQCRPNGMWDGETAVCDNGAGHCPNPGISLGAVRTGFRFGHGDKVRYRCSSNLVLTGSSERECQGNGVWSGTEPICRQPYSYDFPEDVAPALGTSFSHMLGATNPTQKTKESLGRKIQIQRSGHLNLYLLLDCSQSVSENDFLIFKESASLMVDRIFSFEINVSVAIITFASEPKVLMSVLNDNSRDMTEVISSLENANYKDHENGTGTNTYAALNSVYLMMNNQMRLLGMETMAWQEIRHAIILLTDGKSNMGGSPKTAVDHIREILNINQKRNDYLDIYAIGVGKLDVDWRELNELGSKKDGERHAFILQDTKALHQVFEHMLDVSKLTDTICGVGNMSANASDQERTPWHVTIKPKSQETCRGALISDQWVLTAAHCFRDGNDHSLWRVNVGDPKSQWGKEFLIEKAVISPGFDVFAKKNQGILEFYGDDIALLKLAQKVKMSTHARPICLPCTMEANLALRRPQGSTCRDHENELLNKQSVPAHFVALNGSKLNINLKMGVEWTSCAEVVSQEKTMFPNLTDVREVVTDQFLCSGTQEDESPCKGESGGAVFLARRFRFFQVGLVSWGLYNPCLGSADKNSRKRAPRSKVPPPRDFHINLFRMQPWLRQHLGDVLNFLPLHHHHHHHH

For another assay, the target named is T2, human C2 K415A (human, UniProt P06681 21-752).
T2 sequence: T1 sequence with K395A, A666E

In another assay the target is T3, human C2 K430A (human, UniProt P06681 21-752).
T3 sequence: T1 sequence with K410A, A666E

The target in the next assay is T4, human C2 L620A (human, UniProt P06681 21-752).
T4 sequence: T1 sequence with L600A, A666E

B1: RF16-214 (antibody, V domains shown)
VH: EVQLLESGGGLVQPGGSLRLSCAASGFTFSWYQMMWVRQAPGKGLEWVSRIYPSGGGTAYADSVKGRFTISRDNSKNTLYLQMNSLRAEDTAVYYCARDAGYGDNWGQGTLVTVSS
VL: QSALTQPPSVSVSPGQTASITCSGDKLGEKYASWYQQKAGQSPVMVIYQDRKRPSGIPERFSGSNSGNTATLTISGTQAMDEADYYCQAWDTRAVVFGGGTKLTVLG
On to B1, for which the Fold diff was 4 fold with human C2 E686A, 1 fold with human C2 K415A, 10 fold with human C2 K430A and 1 fold with human C2 L620A.
